The target in experiment [1] is T1, human OX40 (human, UniProt P43489 29-277).
T1 chain: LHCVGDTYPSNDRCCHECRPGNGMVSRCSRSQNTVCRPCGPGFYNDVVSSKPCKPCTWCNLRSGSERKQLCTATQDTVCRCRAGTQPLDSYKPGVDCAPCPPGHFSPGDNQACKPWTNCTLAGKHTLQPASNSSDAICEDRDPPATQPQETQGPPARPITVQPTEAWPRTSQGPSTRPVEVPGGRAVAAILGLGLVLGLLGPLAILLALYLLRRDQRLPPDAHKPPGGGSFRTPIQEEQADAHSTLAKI
Briefly: flow cytometry.

Experiment [2] deals with T1, human OX40. Briefly: flow cytometry. In general terms: In flow cytometry, cells or beads pass a laser one at a time.

Four molecules from patent US20250236653A1 (published 2025) can be followed below.

Like-named read-outs stand apart in the source and are kept apart here.

B1: mono-mut23-20E5_V6 (Fc fusion)
chain: IWELKKDVYVVELDWYPDAPGEMVVLTCDTPEEDGITWTLDQSSEVLGSGKTLTIQVKEFGDAGQYTCHKGGEVLSHSLLLLHKKEDGIWSTDILKDQKEPKNKTFLRCEAKNYSGRFTCWWLTTISTDLTFSVKSSRGSSDPQGVTCGAATLSAERVRGDNKEYEYSVECQEDSACPAAEESLPIEVMVDAVHKLKYENYTSSFFIRDIIKPDPPKNLQLKPLKNSRQVEVSWEYPDTWSTPHSYFSLTFSVQVQGKSKREKKDRVFTDKTSATVICRKNASISVRAQDRYYSSSWSEWASVPCSGGGGSGGGGSGGGGSGGGGSGGGGSRNLPVATPDPGMFPCLHHSQNLLRAVSNMLQKARQTLEFSPCTSEEIDHEDITKDKTSTVEACLPLELTKNESCLNSRETSFITNGSCLASRKTSFMMALCLSSIYEDLKMYQVEFKTMNAKLLMDPKRQIFLDQNMLAVIDELMQALNFNSETVPQKSSLEEPDFYKTAIKLCILLHAFRIRAVTIDRVMSYLNASGGGGSGGGGSEPKSSDKTHTCPPCPAPEFEGGPSVFLFPPKPKDTLMISRTPEVTCVVVDVSHEDPEVKFNWYVDGVEVHNAKTKPREEQYNSTYRVVSVLTVLHQDWLNGKEYKCKVSNKALPASIEKTISKAKGQPREPQVCTLPPSRDELTKNQVSLSCAVKGFYPSDIAVEWESNGQPENNYKTTPPVLDSDGSFFLVSKLTVDKSRWQQGNVFSCSVMHEALHNHYTQKSLSLSPG
heavy: QVQLVQSGAEVKKPGASVKVSCKASGYTFTSYVMHWVRQAPGQRLEWIGYINPYNDATKYNEKFKGRATLTSDKSASTAYMELSSLRSEDTAVYYCANYYGSSLSMDYWGQGTLVTVSSASTKGPSVFPLAPSSKSTSGGTAALGCLVKDYFPEPVTVSWNSGALTSGVHTFPAVLQSSGLYSLSSVVTVPSSSLGTQTYICNVNHKPSNTKVDKKVEPKSCDKTHTCPPCPAPEFEGGPSVFLFPPKPKDTLMISRTPEVTCVVVDVSHEDPEVKFNWYVDGVEVHNAKTKPREEQYNSTYRVVSVLTVLHQDWLNGKEYKCKVSNKALPASIEKTISKAKGQPREPQVYTLPPCRDELTKNQVSLWCLVKGFYPSDIAVEWESNGQPENNYKTTPPVLDSDGSFFLYSKLTVDKSRWQQGNVFSCSVMHEALHNHYTQKSLSLSPG
light: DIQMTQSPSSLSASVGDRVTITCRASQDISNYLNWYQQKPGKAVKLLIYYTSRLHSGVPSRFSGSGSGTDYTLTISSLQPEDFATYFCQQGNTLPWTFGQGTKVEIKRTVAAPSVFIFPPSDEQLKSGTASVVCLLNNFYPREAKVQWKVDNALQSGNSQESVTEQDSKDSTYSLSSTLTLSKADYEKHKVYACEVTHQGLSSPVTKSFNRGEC
Consider B1, for which, in the experiment with human OX40 [1], the EC50 amounted to 538 nM.

B2: mono-mut23-20E5_V4 (Fc fusion)
chain: IWELKKDVYVVELDWYPDAPGEMVVLTCDTPEEDGITWTLDQSSEVLGSGKTLTIQVKEFGDAGQYTCHKGGEVLSHSLLLLHKKEDGIWSTDILKDQKEPKNKTFLRCEAKNYSGRFTCWWLTTISTDLTFSVKSSRGSSDPQGVTCGAATLSAERVRGDNKEYEYSVECQEDSACPAAEESLPIEVMVDAVHKLKYENYTSSFFIRDIIKPDPPKNLQLKPLKNSRQVEVSWEYPDTWSTPHSYFSLTFSVQVQGKSKREKKDRVFTDKTSATVICRKNASISVRAQDRYYSSSWSEWASVPCSGGGGSGGGGSGGGGSGGGGSGGGGSRNLPVATPDPGMFPCLHHSQNLLRAVSNMLQKARQTLEFSPCTSEEIDHEDITKDKTSTVEACLPLELTKNESCLNSRETSFITNGSCLASRKTSFMMALCLSSIYEDLKMYQVEFKTMNAKLLMDPKRQIFLDQNMLAVIDELMQALNFNSETVPQKSSLEEPDFYKTAIKLCILLHAFRIRAVTIDRVMSYLNASGGGGSGGGGSEPKSSDKTHTCPPCPAPEFEGGPSVFLFPPKPKDTLMISRTPEVTCVVVDVSHEDPEVKFNWYVDGVEVHNAKTKPREEQYNSTYRVVSVLTVLHQDWLNGKEYKCKVSNKALPASIEKTISKAKGQPREPQVCTLPPSRDELTKNQVSLSCAVKGFYPSDIAVEWESNGQPENNYKTTPPVLDSDGSFFLVSKLTVDKSRWQQGNVFSCSVMHEALHNHYTQKSLSLSPG
heavy: QVQLVQSGAEVKKPGASVKVSCKASGYTFTSYVMHWVRQAPGQRLEWIGYINPYNEGTKYNEKFKGRATLTSDKSASTAYMELSSLRSEDTAVYYCANYYGSSLSMDYWGQGTLVTVSSASTKGPSVFPLAPSSKSTSGGTAALGCLVKDYFPEPVTVSWNSGALTSGVHTFPAVLQSSGLYSLSSVVTVPSSSLGTQTYICNVNHKPSNTKVDKKVEPKSCDKTHTCPPCPAPEFEGGPSVFLFPPKPKDTLMISRTPEVTCVVVDVSHEDPEVKFNWYVDGVEVHNAKTKPREEQYNSTYRVVSVLTVLHQDWLNGKEYKCKVSNKALPASIEKTISKAKGQPREPQVYTLPPCRDELTKNQVSLWCLVKGFYPSDIAVEWESNGQPENNYKTTPPVLDSDGSFFLYSKLTVDKSRWQQGNVFSCSVMHEALHNHYTQKSLSLSPG
light: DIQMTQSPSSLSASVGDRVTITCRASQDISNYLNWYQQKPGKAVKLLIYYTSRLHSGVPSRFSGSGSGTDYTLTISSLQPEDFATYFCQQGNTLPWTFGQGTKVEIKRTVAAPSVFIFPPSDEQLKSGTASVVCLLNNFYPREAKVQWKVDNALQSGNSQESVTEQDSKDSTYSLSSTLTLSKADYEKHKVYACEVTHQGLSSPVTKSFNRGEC
As to B2, the EC50 with human OX40 [1] came out at 69.2 nM.

B3: mono-mut23-12H3_V4 (Fc fusion)
chain: IWELKKDVYVVELDWYPDAPGEMVVLTCDTPEEDGITWTLDQSSEVLGSGKTLTIQVKEFGDAGQYTCHKGGEVLSHSLLLLHKKEDGIWSTDILKDQKEPKNKTFLRCEAKNYSGRFTCWWLTTISTDLTFSVKSSRGSSDPQGVTCGAATLSAERVRGDNKEYEYSVECQEDSACPAAEESLPIEVMVDAVHKLKYENYTSSFFIRDIIKPDPPKNLQLKPLKNSRQVEVSWEYPDTWSTPHSYFSLTFSVQVQGKSKREKKDRVFTDKTSATVICRKNASISVRAQDRYYSSSWSEWASVPCSGGGGSGGGGSGGGGSGGGGSGGGGSRNLPVATPDPGMFPCLHHSQNLLRAVSNMLQKARQTLEFSPCTSEEIDHEDITKDKTSTVEACLPLELTKNESCLNSRETSFITNGSCLASRKTSFMMALCLSSIYEDLKMYQVEFKTMNAKLLMDPKRQIFLDQNMLAVIDELMQALNFNSETVPQKSSLEEPDFYKTAIKLCILLHAFRIRAVTIDRVMSYLNASGGGGSGGGGSEPKSSDKTHTCPPCPAPEFEGGPSVFLFPPKPKDTLMISRTPEVTCVVVDVSHEDPEVKFNWYVDGVEVHNAKTKPREEQYNSTYRVVSVLTVLHQDWLNGKEYKCKVSNKALPASIEKTISKAKGQPREPQVCTLPPSRDELTKNQVSLSCAVKGFYPSDIAVEWESNGQPENNYKTTPPVLDSDGSFFLVSKLTVDKSRWQQGNVFSCSVMHEALHNHYTQKSLSLSPG
heavy: QVQLVQSGAEVKKPGSSVKVSCKASGYTFKDYTMHWVRQAPGQGLEWIGGIYPNAGGSTYNQNFKDRVTLTADKSTSTAYMELSSLRSEDTAVYYCARMGYHGPHLDFDVWGQGTTVTVSSASTKGPSVFPLAPSSKSTSGGTAALGCLVKDYFPEPVTVSWNSGALTSGVHTFPAVLQSSGLYSLSSVVTVPSSSLGTQTYICNVNHKPSNTKVDKKVEPKSCDKTHTCPPCPAPEFEGGPSVFLFPPKPKDTLMISRTPEVTCVVVDVSHEDPEVKFNWYVDGVEVHNAKTKPREEQYNSTYRVVSVLTVLHQDWLNGKEYKCKVSNKALPASIEKTISKAKGQPREPQVYTLPPCRDELTKNQVSLWCLVKGFYPSDIAVEWESNGQPENNYKTTPPVLDSDGSFFLYSKLTVDKSRWQQGNVFSCSVMHEALHNHYTQKSLSLSPG
light: DIQMTQSPSSLSASVGDRVTITCKASQDVGAAVAWYQQKPGKAPKLLIYWASTRHTGVPSRFSGSGSGTDFTLTISSLQPEDFATYYCQQYINYPLTFGGGTKVEIKRTVAAPSVFIFPPSDEQLKSGTASVVCLLNNFYPREAKVQWKVDNALQSGNSQESVTEQDSKDSTYSLSSTLTLSKADYEKHKVYACEVTHQGLSSPVTKSFNRGEC
B3 registered an EC50 with human OX40 [2] of 1880 nM.

B4: mono-mut23-20E5_V5 (Fc fusion)
chain: IWELKKDVYVVELDWYPDAPGEMVVLTCDTPEEDGITWTLDQSSEVLGSGKTLTIQVKEFGDAGQYTCHKGGEVLSHSLLLLHKKEDGIWSTDILKDQKEPKNKTFLRCEAKNYSGRFTCWWLTTISTDLTFSVKSSRGSSDPQGVTCGAATLSAERVRGDNKEYEYSVECQEDSACPAAEESLPIEVMVDAVHKLKYENYTSSFFIRDIIKPDPPKNLQLKPLKNSRQVEVSWEYPDTWSTPHSYFSLTFSVQVQGKSKREKKDRVFTDKTSATVICRKNASISVRAQDRYYSSSWSEWASVPCSGGGGSGGGGSGGGGSGGGGSGGGGSRNLPVATPDPGMFPCLHHSQNLLRAVSNMLQKARQTLEFSPCTSEEIDHEDITKDKTSTVEACLPLELTKNESCLNSRETSFITNGSCLASRKTSFMMALCLSSIYEDLKMYQVEFKTMNAKLLMDPKRQIFLDQNMLAVIDELMQALNFNSETVPQKSSLEEPDFYKTAIKLCILLHAFRIRAVTIDRVMSYLNASGGGGSGGGGSEPKSSDKTHTCPPCPAPEFEGGPSVFLFPPKPKDTLMISRTPEVTCVVVDVSHEDPEVKFNWYVDGVEVHNAKTKPREEQYNSTYRVVSVLTVLHQDWLNGKEYKCKVSNKALPASIEKTISKAKGQPREPQVCTLPPSRDELTKNQVSLSCAVKGFYPSDIAVEWESNGQPENNYKTTPPVLDSDGSFFLVSKLTVDKSRWQQGNVFSCSVMHEALHNHYTQKSLSLSPG
heavy: QVQLVQSGAEVKKPGASVKVSCKASGYTFTSYVMHWVRQAPGQRLEWIGYINPYNAGTKYNEKFKGRATLTSDKSASTAYMELSSLRSEDTAVYYCANYYGSSLSMDYWGQGTLVTVSSASTKGPSVFPLAPSSKSTSGGTAALGCLVKDYFPEPVTVSWNSGALTSGVHTFPAVLQSSGLYSLSSVVTVPSSSLGTQTYICNVNHKPSNTKVDKKVEPKSCDKTHTCPPCPAPEFEGGPSVFLFPPKPKDTLMISRTPEVTCVVVDVSHEDPEVKFNWYVDGVEVHNAKTKPREEQYNSTYRVVSVLTVLHQDWLNGKEYKCKVSNKALPASIEKTISKAKGQPREPQVYTLPPCRDELTKNQVSLWCLVKGFYPSDIAVEWESNGQPENNYKTTPPVLDSDGSFFLYSKLTVDKSRWQQGNVFSCSVMHEALHNHYTQKSLSLSPG
light: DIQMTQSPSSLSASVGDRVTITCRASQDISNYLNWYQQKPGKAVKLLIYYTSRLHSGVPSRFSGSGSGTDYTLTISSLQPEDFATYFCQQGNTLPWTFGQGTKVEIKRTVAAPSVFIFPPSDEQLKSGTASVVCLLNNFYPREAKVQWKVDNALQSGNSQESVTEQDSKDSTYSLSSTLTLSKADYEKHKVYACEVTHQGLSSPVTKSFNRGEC
B4 had an EC50 with human OX40 [1] of 73 nM.

A word on the EC50: it is the concentration needed to bring the measured effect to its halfway point.
